These results are taken from publication PMC9943652.

This data set has as its target coreTFIIH (7-subunit: XPB, XPD, p62, p52, p44, p34, p8);XPG (human;human) (UniProt P19447+P18074+P32780+Q92759+Q13888+Q13889+Q6ZYL4+P28715). The data set is described as follows: EMSA. For orientation: In EMSA bound probe runs differently from free probe, usually more slowly.

“TTTTTTTTTTTTTTTTTTTTTTTTTTTTTNTTTTTTTTTTGCCTCGCTGCCGTCGCCA / TGGCGACGGCAGCGAGGC [Chol11]”: where the note is “cholesterol moiety at N (between S12 and S13), position 11 from ss/ds junction”, the binding signal (fold lower Kd than XPG alone) came out at 8.

The sequence “TTTTTTTTTTTTTTTTTTTTTTTTTTTTTTTTTTTTNTTTGCCTCGCTGCCGTCGCCA / TGGCGACGGCAGCGAGGC [Chol4]” registered a binding signal (fold lower Kd than XPG alone) (cholesterol moiety at N (between S10 and S11), position 4 from ss/ds junction) of 7.
